# Measurements as given in publication PMC8432736.
# Molecular target: Recombinant active ACE2-Fc (ACRO biosystems, AC2-H5257) (human) (UniProt Q9BYF1)
# Assay: SPR
# Sequence of UniProt Q9BYF1 (Q9BYF1 18-740): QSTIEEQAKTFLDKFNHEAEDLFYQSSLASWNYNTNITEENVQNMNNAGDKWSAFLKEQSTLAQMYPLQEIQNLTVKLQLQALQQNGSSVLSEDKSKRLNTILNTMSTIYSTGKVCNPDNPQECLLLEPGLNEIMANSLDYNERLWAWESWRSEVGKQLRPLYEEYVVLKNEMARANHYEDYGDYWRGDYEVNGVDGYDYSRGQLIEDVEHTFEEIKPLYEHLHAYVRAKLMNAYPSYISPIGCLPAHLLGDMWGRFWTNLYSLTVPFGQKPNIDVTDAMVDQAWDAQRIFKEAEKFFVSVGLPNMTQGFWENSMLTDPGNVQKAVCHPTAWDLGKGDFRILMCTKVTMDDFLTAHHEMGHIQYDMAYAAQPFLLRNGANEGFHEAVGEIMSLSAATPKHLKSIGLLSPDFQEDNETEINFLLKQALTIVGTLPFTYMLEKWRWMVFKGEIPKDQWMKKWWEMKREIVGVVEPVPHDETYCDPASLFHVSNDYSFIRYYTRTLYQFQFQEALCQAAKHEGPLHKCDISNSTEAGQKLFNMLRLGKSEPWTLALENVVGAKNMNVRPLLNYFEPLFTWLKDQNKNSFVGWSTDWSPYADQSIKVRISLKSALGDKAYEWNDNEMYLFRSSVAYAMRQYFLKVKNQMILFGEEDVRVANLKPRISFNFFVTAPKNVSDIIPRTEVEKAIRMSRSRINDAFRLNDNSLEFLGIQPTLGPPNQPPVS
substance,measurement,value
Angiotensin II (peptide),Kd,117 nM
